Experimental data as given in patent US20200024322A1 (Eli Lilly, published 2020).
Numbered stars: 1 amine (or outer) side, 2 acyl side, 3 side chain; on linkers, the order of the positions; unused ones are H or OH. Square brackets hold non-standard residues; d marks the D form. Side chains are listed from the residue outwards. Ends that are not written are not given here. * marks the point of attachment. C20 diacid = O=C(O)CCCCCCCCCCCCCCCCCCC(=O)*; γGlu = O=C(O)[C@H](CCC(=O)[*:2])N[*:1]; AEEA = NCCOCCOCC(=O)O; Aib = CC(C)(N)C(=O)O

T1: human GIP receptor (human, UniProt P48546 22-466)
T1 construct: whole, on cells; Used as crude membranes of stably transfected CHO cells; also called hGIPR
T1 sequence (looked up): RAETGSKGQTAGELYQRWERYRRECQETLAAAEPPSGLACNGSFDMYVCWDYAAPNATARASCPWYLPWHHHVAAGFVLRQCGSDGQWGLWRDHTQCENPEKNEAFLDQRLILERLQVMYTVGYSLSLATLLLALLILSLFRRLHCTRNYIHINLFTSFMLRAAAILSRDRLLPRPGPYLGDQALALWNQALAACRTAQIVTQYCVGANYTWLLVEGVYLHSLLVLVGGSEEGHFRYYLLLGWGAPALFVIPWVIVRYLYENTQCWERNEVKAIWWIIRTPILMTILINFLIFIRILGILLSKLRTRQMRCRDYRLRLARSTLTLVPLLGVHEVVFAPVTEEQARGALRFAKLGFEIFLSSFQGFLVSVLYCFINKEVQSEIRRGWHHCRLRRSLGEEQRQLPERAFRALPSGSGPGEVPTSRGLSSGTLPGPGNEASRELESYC

B1: Example 23 (peptide)
peptide: Y[Aib]EGTFTSDK([AEEA-AEEA-γGlu-C20 diacid])SILLDKIAQ[Aib]AFIEYLIEGGPSSGAPPPS-NH2
modifications: N-terminus assumed
SMILES: CC[C@H](C)[C@H](NC(=O)[C@H](CCCCN)NC(=O)[C@H](CC(=O)O)NC(=O)[C@H](CC(C)C)NC(=O)[C@H](CC(C)C)NC(=O)[C@@H](NC(=O)[C@H](CO)NC(=O)[C@H](CCCCNC(=O)COCCOCCNC(=O)COCCOCCNC(=O)CC[C@H](NC(=O)CCCCCCCCCCCCCCCCCCC(=O)O)C(=O)O)NC(=O)[C@H](CC(=O)O)NC(=O)[C@H](CO)NC(=O)[C@@H](NC(=O)[C@H](Cc1ccccc1)NC(=O)[C@@H](NC(=O)CNC(=O)[C@H](CCC(=O)O)NC(=O)C(C)(C)NC(=O)[C@@H](N)Cc1ccc(O)cc1)[C@@H](C)O)[C@@H](C)O)[C@@H](C)CC)C(=O)N[C@@H](C)C(=O)N[C@@H](CCC(N)=O)C(=O)NC(C)(C)C(=O)N[C@@H](C)C(=O)N[C@@H](Cc1ccccc1)C(=O)N[C@H](C(=O)N[C@@H](CCC(=O)O)C(=O)N[C@@H](Cc1ccc(O)cc1)C(=O)N[C@@H](CC(C)C)C(=O)N[C@H](C(=O)N[C@@H](CCC(=O)O)C(=O)NCC(=O)NCC(=O)N1CCC[C@H]1C(=O)N[C@@H](CO)C(=O)N[C@@H](CO)C(=O)NCC(=O)N[C@@H](C)C(=O)N1CCC[C@H]1C(=O)N1CCC[C@H]1C(=O)N1CCC[C@H]1C(=O)N[C@@H](CO)C(N)=O)[C@@H](C)CC)[C@@H](C)CC
B2: Example 26 (peptide)
peptide: Y[Aib]EGTFTSDYSIK([AEEA-AEEA-γGlu-C20 diacid])LDKIAQ[Aib]AFIEYLIEGGPSSGAPPPS-NH2
modifications: N-terminus assumed
SMILES: CC[C@H](C)[C@H](NC(=O)[C@H](CCCCN)NC(=O)[C@H](CC(=O)O)NC(=O)[C@H](CC(C)C)NC(=O)[C@H](CCCCNC(=O)COCCOCCNC(=O)COCCOCCNC(=O)CC[C@H](NC(=O)CCCCCCCCCCCCCCCCCCC(=O)O)C(=O)O)NC(=O)[C@@H](NC(=O)[C@H](CO)NC(=O)[C@H](Cc1ccc(O)cc1)NC(=O)[C@H](CC(=O)O)NC(=O)[C@H](CO)NC(=O)[C@@H](NC(=O)[C@H](Cc1ccccc1)NC(=O)[C@@H](NC(=O)CNC(=O)[C@H](CCC(=O)O)NC(=O)C(C)(C)NC(=O)[C@@H](N)Cc1ccc(O)cc1)[C@@H](C)O)[C@@H](C)O)[C@@H](C)CC)C(=O)N[C@@H](C)C(=O)N[C@@H](CCC(N)=O)C(=O)NC(C)(C)C(=O)N[C@@H](C)C(=O)N[C@@H](Cc1ccccc1)C(=O)N[C@H](C(=O)N[C@@H](CCC(=O)O)C(=O)N[C@@H](Cc1ccc(O)cc1)C(=O)N[C@@H](CC(C)C)C(=O)N[C@H](C(=O)N[C@@H](CCC(=O)O)C(=O)NCC(=O)NCC(=O)N1CCC[C@H]1C(=O)N[C@@H](CO)C(=O)N[C@@H](CO)C(=O)NCC(=O)N[C@@H](C)C(=O)N1CCC[C@H]1C(=O)N1CCC[C@H]1C(=O)N1CCC[C@H]1C(=O)N[C@@H](CO)C(N)=O)[C@@H](C)CC)[C@@H](C)CC
B3: Example 28 (peptide)
peptide: Y[Aib]EGTFTSDYSILLK([AEEA-AEEA-γGlu-C20 diacid])KIAQ[Aib]AFIEYLIEGGPSSGAPPPS-NH2
modifications: N-terminus assumed
SMILES: CC[C@H](C)[C@H](NC(=O)[C@H](CCCCN)NC(=O)[C@H](CCCCNC(=O)COCCOCCNC(=O)COCCOCCNC(=O)CC[C@H](NC(=O)CCCCCCCCCCCCCCCCCCC(=O)O)C(=O)O)NC(=O)[C@H](CC(C)C)NC(=O)[C@H](CC(C)C)NC(=O)[C@@H](NC(=O)[C@H](CO)NC(=O)[C@H](Cc1ccc(O)cc1)NC(=O)[C@H](CC(=O)O)NC(=O)[C@H](CO)NC(=O)[C@@H](NC(=O)[C@H](Cc1ccccc1)NC(=O)[C@@H](NC(=O)CNC(=O)[C@H](CCC(=O)O)NC(=O)C(C)(C)NC(=O)[C@@H](N)Cc1ccc(O)cc1)[C@@H](C)O)[C@@H](C)O)[C@@H](C)CC)C(=O)N[C@@H](C)C(=O)N[C@@H](CCC(N)=O)C(=O)NC(C)(C)C(=O)N[C@@H](C)C(=O)N[C@@H](Cc1ccccc1)C(=O)N[C@H](C(=O)N[C@@H](CCC(=O)O)C(=O)N[C@@H](Cc1ccc(O)cc1)C(=O)N[C@@H](CC(C)C)C(=O)N[C@H](C(=O)N[C@@H](CCC(=O)O)C(=O)NCC(=O)NCC(=O)N1CCC[C@H]1C(=O)N[C@@H](CO)C(=O)N[C@@H](CO)C(=O)NCC(=O)N[C@@H](C)C(=O)N1CCC[C@H]1C(=O)N1CCC[C@H]1C(=O)N1CCC[C@H]1C(=O)N[C@@H](CO)C(N)=O)[C@@H](C)CC)[C@@H](C)CC
B4: Example 35 (peptide)
peptide: Y[Aib]EGTFTSDYSILLDKIAQ[Aib]AFIEYK([AEEA-AEEA-γGlu-C20 diacid])IEGGPSSGAPPPS-NH2
modifications: N-terminus assumed
SMILES: CC[C@H](C)[C@H](NC(=O)[C@H](CCCCN)NC(=O)[C@H](CC(=O)O)NC(=O)[C@H](CC(C)C)NC(=O)[C@H](CC(C)C)NC(=O)[C@@H](NC(=O)[C@H](CO)NC(=O)[C@H](Cc1ccc(O)cc1)NC(=O)[C@H](CC(=O)O)NC(=O)[C@H](CO)NC(=O)[C@@H](NC(=O)[C@H](Cc1ccccc1)NC(=O)[C@@H](NC(=O)CNC(=O)[C@H](CCC(=O)O)NC(=O)C(C)(C)NC(=O)[C@@H](N)Cc1ccc(O)cc1)[C@@H](C)O)[C@@H](C)O)[C@@H](C)CC)C(=O)N[C@@H](C)C(=O)N[C@@H](CCC(N)=O)C(=O)NC(C)(C)C(=O)N[C@@H](C)C(=O)N[C@@H](Cc1ccccc1)C(=O)N[C@H](C(=O)N[C@@H](CCC(=O)O)C(=O)N[C@@H](Cc1ccc(O)cc1)C(=O)N[C@@H](CCCCNC(=O)COCCOCCNC(=O)COCCOCCNC(=O)CC[C@H](NC(=O)CCCCCCCCCCCCCCCCCCC(=O)O)C(=O)O)C(=O)N[C@H](C(=O)N[C@@H](CCC(=O)O)C(=O)NCC(=O)NCC(=O)N1CCC[C@H]1C(=O)N[C@@H](CO)C(=O)N[C@@H](CO)C(=O)NCC(=O)N[C@@H](C)C(=O)N1CCC[C@H]1C(=O)N1CCC[C@H]1C(=O)N1CCC[C@H]1C(=O)N[C@@H](CO)C(N)=O)[C@@H](C)CC)[C@@H](C)CC
B5: Example 38 (peptide)
peptide: Y[Aib]EGTFTSDYSILLDKIAQ[Aib]AFIEYLIEK([AEEA-AEEA-γGlu-C20 diacid])GPSSGAPPPS-NH2
modifications: N-terminus assumed
SMILES: CC[C@H](C)[C@H](NC(=O)[C@H](CCCCN)NC(=O)[C@H](CC(=O)O)NC(=O)[C@H](CC(C)C)NC(=O)[C@H](CC(C)C)NC(=O)[C@@H](NC(=O)[C@H](CO)NC(=O)[C@H](Cc1ccc(O)cc1)NC(=O)[C@H](CC(=O)O)NC(=O)[C@H](CO)NC(=O)[C@@H](NC(=O)[C@H](Cc1ccccc1)NC(=O)[C@@H](NC(=O)CNC(=O)[C@H](CCC(=O)O)NC(=O)C(C)(C)NC(=O)[C@@H](N)Cc1ccc(O)cc1)[C@@H](C)O)[C@@H](C)O)[C@@H](C)CC)C(=O)N[C@@H](C)C(=O)N[C@@H](CCC(N)=O)C(=O)NC(C)(C)C(=O)N[C@@H](C)C(=O)N[C@@H](Cc1ccccc1)C(=O)N[C@H](C(=O)N[C@@H](CCC(=O)O)C(=O)N[C@@H](Cc1ccc(O)cc1)C(=O)N[C@@H](CC(C)C)C(=O)N[C@H](C(=O)N[C@@H](CCC(=O)O)C(=O)N[C@@H](CCCCNC(=O)COCCOCCNC(=O)COCCOCCNC(=O)CC[C@H](NC(=O)CCCCCCCCCCCCCCCCCCC(=O)O)C(=O)O)C(=O)NCC(=O)N1CCC[C@H]1C(=O)N[C@@H](CO)C(=O)N[C@@H](CO)C(=O)NCC(=O)N[C@@H](C)C(=O)N1CCC[C@H]1C(=O)N1CCC[C@H]1C(=O)N1CCC[C@H]1C(=O)N[C@@H](CO)C(N)=O)[C@@H](C)CC)[C@@H](C)CC
B6: Example 85 (peptide)
peptide: Y[Aib]EGTFTSDASILLDKK([AEEA-AEEA-γGlu-C20 diacid])AQ[Aib]AFIEYLIEGGPSSGAPPPS-NH2
modifications: N-terminus assumed
SMILES: CC[C@H](C)[C@H](NC(=O)[C@H](CC(C)C)NC(=O)[C@H](Cc1ccc(O)cc1)NC(=O)[C@H](CCC(=O)O)NC(=O)[C@@H](NC(=O)[C@H](Cc1ccccc1)NC(=O)[C@H](C)NC(=O)C(C)(C)NC(=O)[C@H](CCC(N)=O)NC(=O)[C@H](C)NC(=O)[C@H](CCCCNC(=O)COCCOCCNC(=O)COCCOCCNC(=O)CC[C@H](NC(=O)CCCCCCCCCCCCCCCCCCC(=O)O)C(=O)O)NC(=O)[C@H](CCCCN)NC(=O)[C@H](CC(=O)O)NC(=O)[C@H](CC(C)C)NC(=O)[C@H](CC(C)C)NC(=O)[C@@H](NC(=O)[C@H](CO)NC(=O)[C@H](C)NC(=O)[C@H](CC(=O)O)NC(=O)[C@H](CO)NC(=O)[C@@H](NC(=O)[C@H](Cc1ccccc1)NC(=O)[C@@H](NC(=O)CNC(=O)[C@H](CCC(=O)O)NC(=O)C(C)(C)NC(=O)[C@@H](N)Cc1ccc(O)cc1)[C@@H](C)O)[C@@H](C)O)[C@@H](C)CC)[C@@H](C)CC)C(=O)N[C@@H](CCC(=O)O)C(=O)NCC(=O)NCC(=O)N1CCC[C@H]1C(=O)N[C@@H](CO)C(=O)N[C@@H](CO)C(=O)NCC(=O)N[C@@H](C)C(=O)N1CCC[C@H]1C(=O)N1CCC[C@H]1C(=O)N1CCC[C@H]1C(=O)N[C@@H](CO)C(N)=O
B7: Example 204 (peptide)
peptide: YXEGTXTSDXSIXLDEKAQXEFIXYLIEGGPSSGAPPPS
modifications: Aib2; αMeF(2F)6; 4Pal10; αMeL13; K17((2-[2-(2-Amino-ethoxy)-ethoxy]-acetyl)2-(γ-Glu)-CO-(CH2)16-CO2H); Aib20; D-Glu24; C-terminal NH2

Legend:
human GLP-1 receptor = target: T2, human GLP-1 receptor (human, UniProt P43220 24-463); assay: SPA, [125I]-GLP-1 displacement, hGLP-1R membranes
T2 construct: whole, on cells; Used as crude membranes of stably transfected HEK293 cells; also called hGLP1R; hGLP-1R

human GIP receptor = target: T1, human GIP receptor; assay: SPA, [125I]-GIP displacement, hGIPR membranes

Binder | Ki (human GLP-1 receptor) | Ki (human GIP receptor)
B1 | 6.32 nM | 0.258 nM
B2 | 4.22 nM | 0.176 nM
B3 | 21.1 nM | 0.24 nM
Y[Aib]EGTFTSDYSILLDKIAQ[Aib]AFK([AEEA-AEEA-γGlu-C20 diacid])EYLIEGGPSSGAPPPS-NH2 [Example 33] | 361 nM | 6.4 nM
B4 | 54.6 nM | 0.0358 nM
B5 | 31.3 nM | 0.104 nM
B6 | 1.87 nM | 0.621 nM
B7 |  | 0.0704 nM
